Positions count from the first letter of the chain named.
T1: DDX21Core-DD (human, UniProt Q9NR30 186-620)
T1 sequence: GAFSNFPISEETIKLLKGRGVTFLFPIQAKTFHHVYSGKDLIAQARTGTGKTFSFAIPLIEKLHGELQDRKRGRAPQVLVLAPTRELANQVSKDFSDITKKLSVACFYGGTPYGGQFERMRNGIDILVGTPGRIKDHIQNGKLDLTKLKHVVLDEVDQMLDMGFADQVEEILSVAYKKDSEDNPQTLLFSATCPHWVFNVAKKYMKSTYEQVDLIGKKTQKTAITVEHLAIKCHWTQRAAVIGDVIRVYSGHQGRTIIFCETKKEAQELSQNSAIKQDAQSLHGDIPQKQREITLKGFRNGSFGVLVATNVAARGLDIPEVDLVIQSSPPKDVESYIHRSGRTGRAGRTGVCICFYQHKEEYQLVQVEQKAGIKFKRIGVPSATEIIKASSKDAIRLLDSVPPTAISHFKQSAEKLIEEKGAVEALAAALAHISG

T2: DDX21Fl monomer (human, UniProt Q9NR30 1-783, L611R;A612R;A613R;A614R;L615R;A616R)
T2 sequence: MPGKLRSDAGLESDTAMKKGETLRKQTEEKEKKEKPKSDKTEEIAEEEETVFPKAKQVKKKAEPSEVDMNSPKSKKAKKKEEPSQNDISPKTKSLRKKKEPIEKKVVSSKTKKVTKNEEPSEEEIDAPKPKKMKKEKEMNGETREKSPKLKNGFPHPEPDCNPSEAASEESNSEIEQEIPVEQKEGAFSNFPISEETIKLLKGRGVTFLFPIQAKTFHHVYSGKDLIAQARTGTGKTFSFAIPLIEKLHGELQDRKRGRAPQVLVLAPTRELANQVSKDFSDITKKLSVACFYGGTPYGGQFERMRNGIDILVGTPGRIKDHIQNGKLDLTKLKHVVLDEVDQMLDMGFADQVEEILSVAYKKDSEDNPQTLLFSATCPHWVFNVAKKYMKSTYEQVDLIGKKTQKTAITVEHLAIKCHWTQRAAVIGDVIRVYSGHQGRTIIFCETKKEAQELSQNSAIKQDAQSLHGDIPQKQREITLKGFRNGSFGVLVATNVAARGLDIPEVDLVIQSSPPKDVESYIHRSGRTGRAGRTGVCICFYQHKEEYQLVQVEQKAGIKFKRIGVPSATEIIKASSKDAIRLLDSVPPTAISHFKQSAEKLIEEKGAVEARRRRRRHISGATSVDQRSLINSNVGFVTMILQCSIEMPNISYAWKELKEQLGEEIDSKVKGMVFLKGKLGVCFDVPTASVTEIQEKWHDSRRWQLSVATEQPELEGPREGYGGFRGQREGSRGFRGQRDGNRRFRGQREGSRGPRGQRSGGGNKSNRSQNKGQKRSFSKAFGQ

T3: DDX21ΔN (human, UniProt Q9NR30 186-783)
T3 sequence: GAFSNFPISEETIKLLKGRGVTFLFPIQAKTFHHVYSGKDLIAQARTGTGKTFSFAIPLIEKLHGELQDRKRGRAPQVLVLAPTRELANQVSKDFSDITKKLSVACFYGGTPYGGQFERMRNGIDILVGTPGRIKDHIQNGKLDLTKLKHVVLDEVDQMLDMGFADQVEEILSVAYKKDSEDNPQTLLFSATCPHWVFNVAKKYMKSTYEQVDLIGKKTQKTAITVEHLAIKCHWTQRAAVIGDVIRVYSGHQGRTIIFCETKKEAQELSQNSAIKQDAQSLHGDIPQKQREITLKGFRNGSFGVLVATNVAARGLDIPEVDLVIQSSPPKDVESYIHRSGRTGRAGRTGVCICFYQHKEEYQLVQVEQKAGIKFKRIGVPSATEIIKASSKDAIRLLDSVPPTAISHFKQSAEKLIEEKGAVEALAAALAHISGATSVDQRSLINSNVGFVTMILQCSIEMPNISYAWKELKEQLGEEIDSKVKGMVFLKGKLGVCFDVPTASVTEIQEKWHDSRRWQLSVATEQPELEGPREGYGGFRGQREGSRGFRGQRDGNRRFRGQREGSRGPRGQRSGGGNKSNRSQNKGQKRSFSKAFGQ

T4: DDX21ΔN monomer (human, UniProt Q9NR30 186-783, L611R;A612R;A613R;A614R;L615R;A616R)
T4 sequence: T3 sequence with L426R, A427R, A428R, A429R, L430R, A431R

B1: dsRNA 15/30mer 3' overhang (dsRNA)
RNA 1: GUUUCGGAUCGACGC
RNA 2: GCGUCGAUCCGAAACUAUACUUAAUUUUAA

How the values were obtained:
Test in all cases: fluorescence polarization; FP: 50 mM Tris pH 7.5, 50 mM KCl, 5 mM MgCl2, no ATP; Hill-slope fit; temperature not given in the material
DDX21Core-DD = target: T1, DDX21Core-DD; settings: protein: recombinant, tags: C-terminal His6, uncleavable, chain copies: 2
DDX21Fl monomer = target: T2, DDX21Fl monomer; settings: protein: recombinant
DDX21ΔN = target: T3, DDX21ΔN; settings: protein: recombinant, chain copies: 2
DDX21ΔN monomer = target: T4, DDX21ΔN monomer; settings: protein: recombinant
[1] = label: 5'-FAM on 15-mer, 3' overhang 15 nt

Binder | Kd (DDX21Core-DD; [1]) | Kd (DDX21Fl monomer; [1]) | Kd (DDX21ΔN; [1]) | Kd (DDX21ΔN monomer; [1]) | Kd (DDX21Core-DD; label: 5'-FAM, single strand) | Kd (DDX21Fl monomer; label: 5'-FAM, single strand) | Kd (DDX21ΔN; label: 5'-FAM, single strand) | Kd (DDX21ΔN monomer; label: 5'-FAM, single strand)
B1 | 143 ± 6.1 nM | 13.9 ± 2.5 nM | 15.5 ± 0.8 nM | 122 ± 19.3 nM |  |  |  | 
GUUUCGGAUCGACGC (ssRNA) [15-mer ssRNA] |  |  |  |  | 330 ± 19.1 nM | 29.9 ± 2.7 nM | 40.3 ± 2.6 nM | 24.9 ± 1.7 nM

From article PMC7721647, “The Human RNA Helicase DDX21 Presents a Dimerization Interface Necessary for Helicase Activity” (iScience, 2020)
